Reference: paper PMC8828469
Where “and” joins values, the source holds several entries; their conditions need not be identical. Equal values may be shown once.

Target: hamster ACE2 ectodomain with human IgG1 Fc tag (hamster)
Test: BLI

“SARS-CoV-2 spike protein of Alpha (B.1.1.7), S^Alpha, recombinant trimeric ectodomain (from UniProt P0DTC2 14-1208) (domain or fragment)” was tested, and the kon was 111000 M⁻¹ s⁻¹ and 90700 M⁻¹ s⁻¹ and 98000 M⁻¹ s⁻¹.
